Results taken from the DeepSol protein solubility set.

test: soluble on expression in E. coli; label from the status in PepcDB or PDB records

Soluble on expression in E. coli, soluble:
MSLAQEIALTPQPAHLTVKDGRFEFGNQLKAKVTPYQGDSIRMVFESFKKELQEATGIKVSSTQKEAKARIILDLNPQLPAEAYKLNVSKKQVRIEASRPAGFYYALQTLKQLMPRNVMAGVATSDHSQWSLPSVEIEDAPRFEWRGFMLDEGRHFFGKDEIKRVIDMMAIYKMNRFHWHLTEDQGWRIEIKKYPKLTETGAWRNSKVLAYGDVKPDGERYGGFYTQKDIKEIVAYAKKKFIEIIPEIDIPGHSQAAVAAYPEFLACDPRDKHEVWLQQGISTDVINVANPKAMQFAKEVIDELTELFPFNYIHLGGDECPTRKWQKNDECKKLLSEIGSSNFRDLQIYFYKQLKDYIATKPADQQRQLIFWNEVLHGNTSILGNDITIMAWIGANAAAKQAAKQGMNTILSPQIPYYINRKQSKLPTEPMSQGHGTETVEAVYNYQPLKDVDAALQPYYKGVQANFWTEWVTEPSVLEYLMLPRLAAVAEAGWTPQEKRNYEDFKERIRKDAELYDLKGWNYGKHIMKEGHHHHHH, SEDDLTKVLNYTKQRQTEPNPEYYGVAKKKNIIKIHLESFQTFLINKKVNGKEVTPFLNKLSSGKEQFTYFPNFFHQTGQGKTSDSEFTMDNSLYGLPQGSAFSLKGDNTYQSLPAILDQKQGYKSDVMHGDYKTFWNRDQVYKHFGIDKFYDATYYDMSDKNVVNLGLKDKIFFKDSANYQAKMKSPFYSHLITLTNHYPFTLDEKDATIEKSNTGDATVDGYIQTARYLDEALEEYINDLKKKGLYDNSVIMIYGDHYGISENHNNAMEKLLGEKITPAKFTDLNRTGFWIKIPGKSGGINNEYAGQVDVMPTILHLAGIDTKNYLMFGTDLFSKGHNQVVPFRNGDFITKDYKYVNGKIYSNKNNELITTQPADFEKNKKQVEKDLEMSDNVLNGDLFRFYKNPDFKKVNPSKYKYETGPK, SYDSPDYTDESCTFKISLRNFRSILSWELKNHSIVPTHYTLLYTIMSKPEDLKVVKNCANTTRSFCDLTDEWRSTHEAYVTVLEGFSGNTTLFSCSHNFWLAIDMSFEPPEFEIVGFTNHINVMVKFPSIVEEELQFDLSLVIEEQSEGIVKKHKPEIKGNMSGNFTYIIDKLIPNTNYCVSVYLEHSDEQAVIKSPLKCTLLPPGQESEFS, MSLSKIIFPGFIDLHNHFPQTQVIASYGTKLLEWLNKYTFPNESLFVDDKHCERESKIFLDLLNHNGITTSVSFGSVHPNSVEYLFQEAHRRNMCVIAGNVLMDRNAPDTVLEKADKSYLSSKEIISKWHNVSRCKYAITPRFAITSTPELMEVSQTLCAENQSCYVQTHLSENIDEIETTLELFPDQKDYLSIYDKYKLLSNKTLLAHSIHLEMSEIERMKETKSIAVHCPTSNLFLGSGLFKFKELEEKGVRTAIATDVGGGTSFSMLRTLDEAYKVQQLGNYSLNPLASYFWSTMEGHHHHHH, MSLSSILECIRTVGRGERGRKPLNFDQAFRVMDEYLNGECGDDQMAMLLMLIRVQNETQQEIAGFVKAFQSRMPAIGADIDWPCYAGKREAAGQPWHLLAAKILADNGHKVLMHGYHDRQPGRLHAEDYLDKFAIKKAESAEDAKRVLETQNIVYLPLSAFAPQAETMIGWKNRYGLRTPINTVVRALNPGQATVGIRGSFHPGFQQLHAEVEYEIGQTAHAVVSFKGQSGESEYNPKVSQTVWLSQPSGVTSHYWTEQMLSEVPMPTVCPFGTEETDMNQMANTVLTTIAVVLFAEMHDREQAFERAFSYWASYCAAEGHHHHHH, MKEIKLILTDIDGVWTDGGMFYDQTGNEWKKFNTSDSAGIFWAHNKGIPVGILTGEKTEIVRRRAEKLKVDYLFQGVVDKLSAAEELCNELGINLEQVAYIGDDLNDAKLLKRVGIAGVPASAPFYIRRLSTIFLEKRGGEGVFREFVEKVLGINLEDFIAVIQ

Soluble on expression in E. coli, not soluble:
MAHHHHHHMVLLSVKGTTFPDEFVYECTAATAIYPDLARNLCHIQNSRHLVKLILLSARELLDEARCKKRVEVVDEGPGDGGANSYSALLTEYGAIIESTSARLKDRVVPVSLEEFDQYADRLRELTERLYPEECCVPEGGRSAAVDRLYQLHDDPNLDEDRRLAVYHCRAILDPQWKSHEQQKEDKAGLWFCGKLMEDTIARYSGKNEKSRLTVKVHPKDSVPPSTEPRISYDDQRALYERMRTRREEYKGLEESELRDRVVAQARGKVALTAPAAASPAMSMDLSRLRPICPKREEHEVN, MYATSTQKREWTYTPEKLAAMRLEINIKFRQKYESVMQPDELELFVTPEEELRMQRSIEDAALKFADKFRPHIWPSVKWTALAFFKRAFLVWVPSDTSIRMVMMACFYLAMKIDEFYITIEDFVKNMNVGEPRQNAERILKLEPELMKILDYNLTVHCPYRPYEGHLMDMKTRMLLLNFDLESIRRDSMRFFQNALQTDVLLLYPPSQIALAAINFGLHAQGKSDEILREFLRKLIGIEEDSWAHRDARPEDLEKLEKTVTRVNQIMREVDRNFVAVTEQERENHKSQLARIQALIPALDERRKEQWLAGGGVGLMPGELAEQPVDSDDEIN, MSQPVAFVTGCSSGIGRALADAFQRAGYRVWASARKEDDVRALAEAGFQAVQLDVNDAAALARLAEELGVEAAGLDVLVNNAGYGAMGPLLDGGVEAMRRQFETNVFAVVGVTRALFPLLRRKSGLVVNVGSVSGVLVTPFAGAYCASKAAVHALSDALRLELAPFGVEVLEVQPGAIASNFGASASREMDSVVDERSPWWPLRRQIQARAAASQDNPTSAEDFARQLLAAVQRRPRPPLVRIGNGSRALPALARWLPRGLLERLLKKRFGLDTRL, MTVELKNEYLTVLINEAGAELSSVKSSDGIEYMWQADKTFWGRHAPVLFPIVGRLKDDQYTVAGQAYHMGQHGFARDNDFTVVNQTATQATFELTDSRATREMYPYAFRLRLIYTLTDHELTVNYNVHNPANQELLFSVGGHPAFNVPLADPAGTLADYKITVAPRKVYAHIPLQAPLNDAANADDFDLTKPLALSRDLFKDDALILDLNHHETTLMLDTDLDDHGVAMTIEDAPYVGMWSPYPAEAPFVCLEPWWGIADNVDSDGQLSHKMGINRLAANQTFDAKYAISFFLEHHHHHH, MSLDYSTSLRFQSQLERSMTEALNALGYYHPSIDFTVSEDNQRLRAAVTLGEVTRLSEVDIVIRGEAEGDRDFQRLIRRSGLRVDAPLNHSLYDNLKSGIRNLALQKGYFNGDFQASRLEVIPELNQARVILHFDSGIRYLFGATTVEGSQIDENRVMSLRPFKQGEPYLVSQVGEFNQNLSNTDWFSSVFVEPDLSQLDEGRELPIKVTLAPQARNQLETGLGYSTDVGVRGSLKWKKPWVNSQGHSFDSSFSLSIPEQTITAGYKIPLEDALNEYYRIQYGMKHLDKRDTESLESNLSLERHWQLDGGWHRTVFIRYLLENYRQGLQDDNSQFLLPGMTYTRTRTRSNSGLLTWGDKQTITLEYGDPALLSETRVLRLQTGSSWLRTYARNHRALVRVDGGANLVDEFDQLSPSLRFFAGGDNNLRGYGYKSISPQDASGALTGAKYIATSSIEYQYRLTGNWWAAMFMDVGDAFNDNPEWKKGVGTGIRWISPVGPIRLDFAWGLDAAPGDEFKIHFTLGPELEGHHHHHH, NNMFSRQAPHFAVTDYDGTLQLLEDGLVLQHDGNHPLALYDYLNDKELRTNLIKTQAARADSMTCRIEAVIQSFNHRMNTNRLVADK, MGHHHHHHSHMAAPLGGMFSGQPPGPPQAPPGLPGQASLLQAAPGAPRPSSSTLVDELESSFEACFASLVSQDYVNGTDQEEIRTGVDQCIQKFLDIARQTECFFLQKRLQLSVQKPEQVIKEDVSELRNELQRKDALVQKHLTKLRHWQQVLEDINVQHKKPADIPQGSLAYLGAGICQHPCTSEANVSKGQRQLAYEWADA, MSLKEVRYAMIHDESRCNGCNICARACRKTNHVPAQGSRLSIAHIPVTDNDNETQYHFFRQSCQHCEDAPCIDVCPTGASWRDEQGIVRVEKSQCIGCSYCIGACPYLVRYLNPVTKVADKCDFCAESRLAKGFPPICVSACPEHALIFGREDSPEIQAWLQDNKYYQYQLPGTGKPHLYRRFGQHLIKKENEGHHHHHH, MAKAQLSQNGEARAWQRMLSGRRLDLLNPSPFDIEIEDIAHGLARVARWNGQTQGEYAYSVAQHSLLVEQIFQKLFPQSQNNECLCALLHDAPEYVIGDIISPFKAVIGKQYELIEKRIQDAIHMRFSLPVAPSQKLLKKIKQADRIAAFHESIILAGFNTEEALRYFGHPNNISPEGLNLQPCSTTKIENAFLKRFHDLDVERLH, MNLEHHSNHYQPTCSIEALQARAKLYQTIRTFFAERGVLEVETPIISQAGVTDVHLASVKALRHIEGKERTQYLQTSPEFAMKRLLASGSGPIYQLCKVFRDDEHGRKHNSEFTMLEWYRPEFDLKDLMHETADLLETCLKQRFDEIRPMILSYKHAFQDRLEINPLQATLKQLKDTADRVGLNLDLGNDRLAYIDLLFSHIVEPSLGFDTPVFLTDFPPEMASLAKVRIDEDGEEVAARFEVYIEGLELANAYDELLDANILRARFEADNLERKLQGLAEMPLDENLLAALPHMPACAGIALGVDRLLMIATRQLKIEQVIAFPAAIA, LKKKVKRTCSNCLKGTAININNDILCIEKGIVSSDYVCSKHRFMPSFSSIKRKIHTCIDCEHFIIFDTSNVEDRAFGICELFTVRKYDGKNKKVCSKFVKRVKKEVC, MAHHHHHHMTTVLNRRFDVLCHSGTCPSYLIDVLSLLVAHANDTELFKTELRKGDGGEFGAAATGAGSAHATSSTGPASRTDRAVGEARERQAADRRTQLMYKQVEDPEVLDDALRASHETVLIAAERSLQTYTEDLKHINDIAMATSAKQLRAMRVETQQQMEAFRDRVCGSVVAQTKEELEVMRSELAASVRADVSDMVRQLHQVSFSTQQQLQQLTSSYTDFVAQAHDALTLAPLADAYEAVKTVEYMQEQLKCIEAAATTRSDVETLEERLKDLESIVTTLGSVAKTPDVGAAAAAREGFSVNVPPPLSLSQQKPVLSNRSASHRSQTPKCTSPLPLHLHVSRSASAKGRPSSPPPASPGPPAQRTLAERLGVAVEAAEDGVVLAEVLPGSAAAAHRLGVGHIISHVGRTAVKTPAAFEEALRGIEGQAVKITAYDPFNGRVRVLTAQPL, MSGINARPTNSIFSNLCQIFSSLQGCLKTQTPFSDGLFSLKSPYRSIRKHRRIIMEVTISAIINGEFADQYGKRGSQFNENGMLI, MNIRNARPEDLMNMQHCNLLCLPENYQMKYYFYHGLSWPQLSYIAEDENGKIVGYVLAKMEEDPDDVPHGHITSLAVKRSHRRLGLAQKLMDQASRAMIENFNAKYVSLHVRKRSVKWSPNTMQMGRTPMP, MGSDKIHHHHHHMSKIVVLGAGPAGCSAGYHLAKSGHKVMLIDKDCFPRDKTCGDGISLGSVQALSTMGIYPDDIKRLASEYAQIDGFLLGVSNEISHLCPTELKGYCIPRFVFDNLLYQKAINAGCVARTQRISDIEGYHQELYSDFDYIIDARGVYAGEANAIAIRAYWSIKVADFPKIYLSKAQIYFDKAFGVNGYGWIFPVAVDSELVKLNVGVGVWLDEYQKNNTNIIRLFNEFVQRNQATKQLLSLVVSQQKPKAYPLATAKRANTVSYGKVFKIGDAANLTDPLTGEGIANAILSGLYVTQAINMSTSPELASENWQRLYQLYFEPDLDAGLQIKSFRKFSFINKLLIWLMNRNKPFAEQVTYTFAGLIPYKKLLP
